B1: bmp4: growth factor (R & D Systems) added to retinoic acid and activin-a treated EBs (protein, UniProt P12644 293-408, looked up)
Bone morphogenetic protein 4: SPKHHSQRARKKNKNCRRHSLYVDFSDVGWNDWIVAPPGYQAFYCHGDCPFPLADHLNSTNHAIVQTLVNSVNSSIPKACCVPTELSAISMLYLDEYDKVVLKNYQEMVVEGCGCR
B2: bmp-7: growth factor (R & D Systems), third component of the nephrogenic cocktail (protein, UniProt P18075 293-431, looked up)
Bone morphogenetic protein 7: STGSKQRSQNRSKTPKNQEALRMANVAENSSSDQRQACKKHELYVSFRDLGWQDWIIAPEGYAAYYCEGECAFPLNSYMNATNHAIVQTLVHFINPETVPKPCCAPTQLNAISVLYFDDSSNVILKKYRNMVVRACGCH

Tested on: EB derived cells in E12.5 cultured kidney rudiments
Assay: Injection of EB derived cells into E12.5 cultured kidney rudiments, lacZ / laminin / LTA staining
Format: cell-based, mouse
Conditions: for contribution to developing tubules: compared to untreated EB cells, rudiments 4 or 5 days after injection
Protocol: Cryosections from kidney rudiments were stained for lacZ expression (A & C) and with anti-laminin antibodies (B & D). […] C & D) Many lacZ positive cells from control EBs were found in large and small aggregates (arrows) that remained mesenchymal in appearance and were not surrounded by laminin containing basement membranes. Some blue cells from control EBs were also found in tubules. Magnification bars are 100 microns.
E12.5 kidney rudiments were injected with RA7 treated EB cells (A-F) or control EB cells (G & H) and stained for lacZ, laminin, and LTA binding. […] Arrows point to glomerular tufts. B) Laminin staining of same tissue as in A. C & D) Co-localization of lacZ positive cells in developing proximal tubules (arrows) that also stain with LTA lectin (green) and are surrounded by laminin containing basement membranes (red). E & F) Another developing proximal tubule derived from RA7 treated EB cells (arrow) stained as above. G & H) Many control EB cells localize to interstitial and peripheral mesenchyme (arrows), though a small number of lacZ positive cells are also found in tubules.
This example describes cell culture and microinjection techniques utilized in experiments conducted during the course of the present invention. Mouse ES cells (R26) were grown in high glucose DMEM (GIBCO BRL), 10% fetal bovine serum (Atlanta Biologicals), 0.1 mM β-mercaptoethanol (Sigma), 4 mM glutamine (GIBCO BRL), 20 unit/ml PEN/STREP (GIBCO BRL), 0.1 mg/ml G418 (GIBCO BRL), and 10^3 unit/ml rLIF (Chemicon) on a 0.1% gelatin-coated tissue culture plate at 37° C. CO2 incubator for 2 days. The ES cells were transferred using 0.05% trypsin plus 0.53 mM EDTA (GIBCO BRL) to a 100-mm bacteriological petri dish (Falcon) to induce embryoid body (EB) formation. The EB suspension was cultured in the same medium without rLIF for 2 days and then transferred to 60-mm tissue culture plates coated with 0.1% gelatin. Each 60-mm tissue culture plate contained about 100 EBs. […]

| Molecule | ability of EB cells to contribute to tubules in vitro (addition of 100 ng/ml bmp4) | contribution to developing tubules |
| --- | --- | --- |
| B1 | completely inhibited | did not integrate |
| B2 |  | enhanced |

Source: patent US8470599B2, “Renal progenitor cells from embryonic stem cells” (The Regents of the University of Michigan, priority 2005, dated 2013)
